Experimental findings from US20220119549A1 (TAVOTEK BIOTHERAPEUTICS HONG KONG, published 2022) are described below.

B1: TAVO271272 (antibody, human IgG1, kappa)
heavy: GILEECCFRSCDLALLETYCAGGGGSPLGLAGGGGGSEVQLVESGGGLVQPGGSLRLSCAASGFDFADYAMHWVRQAPGKGLEWVSAITWNGGHTDYADSVKGRFTISRDNSKNTLYLQMNSLRAEDTAVYYCAKVSYLSTASSLDYWGQGTLVTVSSASTKGPSVFPLAPSSKSTSGGTAALGCLVKDYFPEPVTVSWNSGALTSGVHTFPAVLQSSGLYSLSSVVTVPSSSLGTQTYICNVNHKPSNTKVDKKVEPKSCDKTHTCPPCPAPPAAGPSVFLFPPKPKDTLMISRTPEVTCVVVDVSHEDPEVKFNWYVDGVEVHNAKTKPREEQYNSTYRVVSVLTVLHQDWLNGKEYKCKVSNKALPAPIEKTISKAKGQPREPQVYTLPPSRDELTKNQVSLTCLVKGFYPSDIAVEWESNGQPENNYKTTPPVLDSDGSFLLYSKLTVDKSRWQQGNVFSCSVLHEALHSHYTQKSLSLSPGK
light: not shown
notes: Undigested; ADA-H2X / ADA-L1; also called anti-TNFα shielded antibody with variant IGF2-based masking domain; EAC271/EAC272
B2: TAVO271585 (antibody, human IgG1, kappa)
heavy: GILEECCFRSCDLALLETYCAGGGGSPLGLAGGGGGSEVQLVESGGGLVQPGGSLRLSCAASGFDFADYAMHWVRQAPGKGLEWVSAITWNGGHTDYADSVKGRFTISRDNSKNTLYLQMNSLRAEDTAVYYCAKVSYLSTASSLDYWGQGTLVTVSSASTKGPSVFPLAPSSKSTSGGTAALGCLVKDYFPEPVTVSWNSGALTSGVHTFPAVLQSSGLYSLSSVVTVPSSSLGTQTYICNVNHKPSNTKVDKKVEPKSCDKTHTCPPCPAPPAAGPSVFLFPPKPKDTLMISRTPEVTCVVVDVSHEDPEVKFNWYVDGVEVHNAKTKPREEQYNSTYRVVSVLTVLHQDWLNGKEYKCKVSNKALPAPIEKTISKAKGQPREPQVYTLPPSRDELTKNQVSLTCLVKGFYPSDIAVEWESNGQPENNYKTTPPVLDSDGSFLLYSKLTVDKSRWQQGNVFSCSVLHEALHSHYTQKSLSLSPGK
light: AYRPSETLCGGELVDTLQFVCGDRGFAFGGGGSPLGLAGGGGGSDIVMTQSPDSLAVSLGERATINCRASQGIRNYLAWYQQKPGQAPKLLIYAASTLQSGVPDRFSGSGSGTDFTLTISSLQAEDVAVYYCQRYNRAPYTFGQGTKVEIKRTVAAPSVFIFPPSDEQLKSGTASVVCLLNNFYPREAKVQWKVDNALQSGNSQESVTEQDSKDSTYSLSSTLTLSKADYEKHKVYACEVTHQGLSSPVTKSFNRGEC
notes: Variant IGF2 mask; ADA-H2X / ADA-L2; also called EAC271/EAC585
B3: TAVO190197 (antibody, human IgG1, kappa)
heavy: GIVEECCFRSCDLALLETYCAGGGGSPLGLAGGGGGSEVQLVESGGGLVQPGGSLRLSCAASGFDFADYAMHWVRQAPGKGLEWVSAITWNGGHTDYADSVKGRFTISRDNSKNTLYLQMNSLRAEDTAVYYCAKVSYLSTASSLDYWGQGTLVTVSSASTKGPSVFPLAPSSKSTSGGTAALGCLVKDYFPEPVTVSWNSGALTSGVHTFPAVLQSSGLYSLSSVVTVPSSSLGTQTYICNVNHKPSNTKVDKKVEPKSCDKTHTCPPCPAPPAAGPSVFLFPPKPKDTLMISRTPEVTCVVVDVSHEDPEVKFNWYVDGVEVHNAKTKPREEQYNSTYRVVSVLTVLHQDWLNGKEYKCKVSNKALPAPIEKTISKAKGQPREPQVYTLPPSRDELTKNQVSLTCLVKGFYPSDIAVEWESNGQPENNYKTTPPVLDSDGSFLLYSKLTVDKSRWQQGNVFSCSVLHEALHSHYTQKSLSLSPGK
light: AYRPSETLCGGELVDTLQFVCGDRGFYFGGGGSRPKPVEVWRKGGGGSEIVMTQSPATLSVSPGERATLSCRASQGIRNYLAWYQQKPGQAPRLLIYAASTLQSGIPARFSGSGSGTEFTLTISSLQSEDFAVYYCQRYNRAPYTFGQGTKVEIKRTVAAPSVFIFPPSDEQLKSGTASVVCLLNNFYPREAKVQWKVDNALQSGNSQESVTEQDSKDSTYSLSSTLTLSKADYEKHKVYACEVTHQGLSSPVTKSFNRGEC
notes: Undigested; also called anti-TNFα shielded antibody with two different types of protease-cleavable linkers; undigested TAVO190197
B4: TAVO579272 (antibody, human IgG1, kappa)
heavy: GILEECCFRSCDLALLETYCAGGGGSPLGLAGGGGGSEVQLVESGGVVVQPGGSLRLSCAASGFDFADYAMHWVRQAPGKGLEWVSAITWNGGHTDYADSVKGRFTISRDNSKNSLYLQMNSLRTEDTALYYCAKVSYLSTASSLDYWGQGTLVTVSSASTKGPSVFPLAPSSKSTSGGTAALGCLVKDYFPEPVTVSWNSGALTSGVHTFPAVLQSSGLYSLSSVVTVPSSSLGTQTYICNVNHKPSNTKVDKKVEPKSCDKTHTCPPCPAPPAAGPSVFLFPPKPKDTLMISRTPEVTCVVVDVSHEDPEVKFNWYVDGVEVHNAKTKPREEQYNSTYRVVSVLTVLHQDWLNGKEYKCKVSNKALPAPIEKTISKAKGQPREPQVYTLPPSRDELTKNQVSLTCLVKGFYPSDIAVEWESNGQPENNYKTTPPVLDSDGSFLLYSKLTVDKSRWQQGNVFSCSVLHEALHSHYTQKSLSLSPGK
light: not shown
notes: Variant IGF2 mask; ADA-H1X / ADA-L1; also called EAC579/EAC272
B5: TAVO578272 (antibody, human IgG1, kappa)
heavy: GILEECCFRSCDLALLETYCAGGGGSPLGLAGGGGGSEVQLVESGGVVVQPGGSLRLSCAASGFTFDDYAMHWVRQAPGKGLEWVSAITWNSGHIDYADSVKGRFTISRDNSKNSLYLQMNSLRTEDTALYYCAKVSYLSTASSLDYWGQGTLVTVSSASTKGPSVFPLAPSSKSTSGGTAALGCLVKDYFPEPVTVSWNSGALTSGVHTFPAVLQSSGLYSLSSVVTVPSSSLGTQTYICNVNHKPSNTKVDKKVEPKSCDKTHTCPPCPAPPAAGPSVFLFPPKPKDTLMISRTPEVTCVVVDVSHEDPEVKFNWYVDGVEVHNAKTKPREEQYNSTYRVVSVLTVLHQDWLNGKEYKCKVSNKALPAPIEKTISKAKGQPREPQVYTLPPSRDELTKNQVSLTCLVKGFYPSDIAVEWESNGQPENNYKTTPPVLDSDGSFLLYSKLTVDKSRWQQGNVFSCSVLHEALHSHYTQKSLSLSPGK
light: not shown
notes: Variant IGF2 mask; ADA-H1 / ADA-L1; also called EAC578/EAC272
B6: TAVO584272 (antibody, human IgG1, kappa)
heavy: GILEECCFRSCDLALLETYCAGGGGSPLGLAGGGGGSQVQLVESGGGVVQPGGSLRLSCAASGFDFADYAMHWVRQAPGKGLEWVSAITWNGGHTDYADSVKGRFTISRDNSKNTLYLQMNSLRAEDTAVYYCAKVSYLSTASSLDYWGQGTLVTVSSASTKGPSVFPLAPSSKSTSGGTAALGCLVKDYFPEPVTVSWNSGALTSGVHTFPAVLQSSGLYSLSSVVTVPSSSLGTQTYICNVNHKPSNTKVDKKVEPKSCDKTHTCPPCPAPPAAGPSVFLFPPKPKDTLMISRTPEVTCVVVDVSHEDPEVKFNWYVDGVEVHNAKTKPREEQYNSTYRVVSVLTVLHQDWLNGKEYKCKVSNKALPAPIEKTISKAKGQPREPQVYTLPPSRDELTKNQVSLTCLVKGFYPSDIAVEWESNGQPENNYKTTPPVLDSDGSFLLYSKLTVDKSRWQQGNVFSCSVLHEALHSHYTQKSLSLSPGK
light: not shown
notes: Variant IGF2 mask; ADA-H4X / ADA-L1; also called EAC584/EAC272
B7: TAVO580272 (antibody, human IgG1, kappa)
heavy: GILEECCFRSCDLALLETYCAGGGGSPLGLAGGGGGSEVQLVESGGGLVQPGGSLRLSCAASGFTFDDYAMHWVRQAPGKGLEWVSAITWNSGHIDYADSVKGRFTISRDNSKNTLYLQMNSLRAEDTAVYYCAKVSYLSTASSLDYWGQGTLVTVSSASTKGPSVFPLAPSSKSTSGGTAALGCLVKDYFPEPVTVSWNSGALTSGVHTFPAVLQSSGLYSLSSVVTVPSSSLGTQTYICNVNHKPSNTKVDKKVEPKSCDKTHTCPPCPAPPAAGPSVFLFPPKPKDTLMISRTPEVTCVVVDVSHEDPEVKFNWYVDGVEVHNAKTKPREEQYNSTYRVVSVLTVLHQDWLNGKEYKCKVSNKALPAPIEKTISKAKGQPREPQVYTLPPSRDELTKNQVSLTCLVKGFYPSDIAVEWESNGQPENNYKTTPPVLDSDGSFLLYSKLTVDKSRWQQGNVFSCSVLHEALHSHYTQKSLSLSPGK
light: not shown
notes: Variant IGF2 mask; ADA-H2 / ADA-L1; also called EAC580/EAC272
B8: TAVO190197 after digestion by both MMP2 and MMP3 (antibody)
heavy: EVQLVESGGGLVQPGGSLRLSCAASGFDFADYAMHWVRQAPGKGLEWVSAITWNGGHTDYADSVKGRFTISRDNSKNTLYLQMNSLRAEDTAVYYCAKVSYLSTASSLDYWGQGTLVTVSSASTKGPSVFPLAPSSKSTSGGTAALGCLVKDYFPEPVTVSWNSGALTSGVHTFPAVLQSSGLYSLSSVVTVPSSSLGTQTYICNVNHKPSNTKVDKKVEPKSCDKTHTCPPCPAPPAAGPSVFLFPPKPKDTLMISRTPEVTCVVVDVSHEDPEVKFNWYVDGVEVHNAKTKPREEQYNSTYRVVSVLTVLHQDWLNGKEYKCKVSNKALPAPIEKTISKAKGQPREPQVYTLPPSRDELTKNQVSLTCLVKGFYPSDIAVEWESNGQPENNYKTTPPVLDSDGSFLLYSKLTVDKSRWQQGNVFSCSVLHEALHSHYTQKSLSLSPGK
light: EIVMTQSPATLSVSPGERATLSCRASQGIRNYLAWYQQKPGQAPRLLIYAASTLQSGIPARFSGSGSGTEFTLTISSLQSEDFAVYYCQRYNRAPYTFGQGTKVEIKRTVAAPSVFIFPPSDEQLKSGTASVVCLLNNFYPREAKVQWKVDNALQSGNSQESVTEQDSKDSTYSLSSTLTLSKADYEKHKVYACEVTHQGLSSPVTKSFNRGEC
notes: Both chains cut; not shown: remnant of the MMP2-cleavable linker left after cleavage; remnant of the MMP3-cleavable linker left after cleavage

T1 sequence (P01375 77-233 limits assumed): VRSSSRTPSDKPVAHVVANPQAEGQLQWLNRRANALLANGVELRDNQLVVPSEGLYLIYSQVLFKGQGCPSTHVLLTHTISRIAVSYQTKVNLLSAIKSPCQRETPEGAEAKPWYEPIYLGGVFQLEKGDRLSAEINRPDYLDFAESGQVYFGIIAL

This assay addresses T1, recombinant human TNFα (human, UniProt P01375 77-233).
T1 construct: Bought protein
Description: ELISA on human TNFα. (ELISA stands for enzyme-linked immunosorbent assay.)
On to B1, for which the “fold more reduced binding affinity than TAVO190191” value was determined as 8 fold.

With B2, the binding result is “binds”.

On to B3, for which the binding result is “binds”.

As to B4, the binding result was “binds”.

Take B5: the binding result was “binds”.

B6: the binding result is “binds”.

With B7, the binding result was “binds”.

In the case of B8, the binding result is on record as “binds”.
